{
  "source": "patent US20260151519A1",
  "about": "(AKTIS ONCOLOGY, published 2026)",
  "key": {"Human Nectin-4 [1]": {"molecular_target": "T1, Human Nectin-4 (human, UniProt Q96NY8 32-349, limits assumed)", "T1 construct": "Protein immobilised on the SPR chip; also called target protein", "T1 sequence": "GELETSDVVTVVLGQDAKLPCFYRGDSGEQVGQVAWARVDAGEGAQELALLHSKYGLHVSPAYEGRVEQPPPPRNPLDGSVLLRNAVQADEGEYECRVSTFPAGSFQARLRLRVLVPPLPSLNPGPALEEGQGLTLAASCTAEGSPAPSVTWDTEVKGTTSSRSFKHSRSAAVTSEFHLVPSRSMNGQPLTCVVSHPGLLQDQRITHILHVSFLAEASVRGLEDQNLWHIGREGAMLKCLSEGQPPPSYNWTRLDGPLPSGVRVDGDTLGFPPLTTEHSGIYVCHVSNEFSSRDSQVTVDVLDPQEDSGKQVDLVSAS", "test": "Table 2B (DELFIA or SPR)"}, "Human Nectin-4 [2]": {"molecular_target": "T1, Human Nectin-4", "test": "SPR, Biacore, 1:1 model, 25 C", "description": "(§1) Peptide binding affinity to the target protein was measured by SPR using an SPR machine, such as a Biacore T200 instrument. The target protein was covalently coupled to a Biacore chip surface using free amine-coupling chemistry (NHS/EDC) and all uncoupled sites were blocked with ethanolamine. Free peptides were flowed over the target protein surface in increasing concentrations to measure association (Kₐ, 1/Ms⁻¹)) and dissociation (Kd, s⁻¹) to calculate the dissociation equilibrium constant (KD) using an appropriate binding model (see, e.g., Nikolas Stroth, J Biol Methods. 2016; 3 (1)).\n(§2) In FIGS. 1A, 1B, 2A, and 2B, lines on graphs are labeled from top to bottom, beginning with letter “a,” and the corresponding concentration is noted to the right of the figure."}, "Murine Nectin-4": {"molecular_target": "T2, Murine Nectin-4 (mouse, UniProt Q8R007 31-347, limits assumed)", "T2 construct": "Protein immobilised on the SPR chip; also called mouse Nectin-4", "T2 sequence": "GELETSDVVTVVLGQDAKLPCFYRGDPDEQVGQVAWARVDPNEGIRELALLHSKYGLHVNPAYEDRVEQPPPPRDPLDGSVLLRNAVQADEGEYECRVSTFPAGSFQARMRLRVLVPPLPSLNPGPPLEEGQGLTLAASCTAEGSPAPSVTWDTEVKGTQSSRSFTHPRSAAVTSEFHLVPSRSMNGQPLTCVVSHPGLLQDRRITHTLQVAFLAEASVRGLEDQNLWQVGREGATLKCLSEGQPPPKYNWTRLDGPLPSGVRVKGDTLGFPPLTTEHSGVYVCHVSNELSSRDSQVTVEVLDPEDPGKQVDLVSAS", "test": "SPR, Biacore, 1:1 model, 25 C", "description": "as §1, §2"}, "[3]": {"molecular_target": "T3, Human Nectin-4 expressed on cells (human, UniProt Q96NY8 32-510)", "T3 construct": "Endogenous on HT-1376 cells; also called endogenous Nectin-4 on HT-1376 cells; cell surface Nectin-4", "T3 sequence": "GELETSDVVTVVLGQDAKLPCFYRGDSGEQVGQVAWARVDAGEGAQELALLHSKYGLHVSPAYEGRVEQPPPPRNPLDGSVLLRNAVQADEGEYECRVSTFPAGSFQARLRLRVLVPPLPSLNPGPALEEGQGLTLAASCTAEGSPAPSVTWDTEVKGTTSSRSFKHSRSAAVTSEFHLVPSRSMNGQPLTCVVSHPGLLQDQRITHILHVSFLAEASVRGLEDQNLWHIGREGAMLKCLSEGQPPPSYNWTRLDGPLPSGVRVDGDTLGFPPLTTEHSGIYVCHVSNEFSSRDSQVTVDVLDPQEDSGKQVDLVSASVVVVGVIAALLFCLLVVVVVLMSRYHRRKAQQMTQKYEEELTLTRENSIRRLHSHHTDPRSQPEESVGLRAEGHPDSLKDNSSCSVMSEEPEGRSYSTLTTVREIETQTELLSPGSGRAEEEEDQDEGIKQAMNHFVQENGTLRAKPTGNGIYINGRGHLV", "test": "radioligand binding, 177Lu-labelled compound, HT-1376 cells", "description": "On the day of assay, culture medium was removed and PBS was added to cells. Association kinetics were measured at three concentrations of radioligand, and this was performed by the addition of lutetium-177 radioconjugates to cells at various time points from 1 to 60 minutes."}, "[4]": {"molecular_target": "T3, Human Nectin-4 expressed on cells", "test": "DELFIA whole-cell competition against a europium-chelate miniprotein", "description": "A whole cell binding assay was used to estimate the equilibrium binding affinity (KD) or binding inhibition constant (Kᵢ) of miniprotein ligands to cells expressing a target of interest. Cells were dispensed into a 384-well plate and incubated at 37° C. in 5% CO₂ overnight. The next day cells were gently washed once in assay buffer prior to addition of europium chelated ligand. […] For Kᵢ determination, a single concentration (KD equivalent concentration) of europium-chelate miniprotein was added to each well followed immediately by the addition of unconjugated competing ligand over 12 different concentrations ranging from 100 times below and above expected Kᵢ values as before. […] Cells were then washed three times at room temperature with 1×PBS followed by the addition of 2 M HCl and incubated for two h at 37° C. Following this step, 2 M NaOH and fluorescent inducer solution were added to each well and incubated for 30 minutes at room temperature according to the manufacturer's protocol (Perkin-ELMER DELFIA assay). Plates were read on an Envision plate reader and a curve-fitting model was applied to estimate KD and Kᵢ values using GraphPad Prism software."}, "Human Nectin-4 [5]": {"molecular_target": "T1, Human Nectin-4", "test": "SPR, Biacore T200, target immobilised, 1:1 model", "description": "Surface plasmon resonance (SPR) analyses were performed using Biacore T200 (GE Healthcare). Target protein (“ligand”) was immobilized to a CM5 Series S sensor chip (Cytiva) using amine-coupling chemistry. Running buffer was 0.05% surfactant P20 in HEPES buffered saline (HBS-P), pH 7.4 (Cytiva). Immobilization was performed at 25° C. Carboxyl groups in each flow cell were activated using a 1:1 mixture of 0.4 M 1-ethyl-3-(3-dimethylaminopropyl)-carbodiimide in water (EDC) and 0.1 M N-hydroxysuccinimide in water (NHS) for 7 minutes. The ligand was prepared in 10 mM sodium acetate pH 5 (Cytiva). Pulsatile injections were made to target a specific immobilization level. Any remaining amine-reactive esters on the chip surface were blocked with a 7-minute injection of 1 M ethanolamine, pH 8.5. Three 10-second pulses of 50 mM sodium hydroxide were then made to remove any unbound ligand. Reference cells were modified using amine coupling chemistry, omitting ligand injection.\nIncrease in signal (RU) is proportional to an increase in binding events between the analyte and ligand surface. The injection was then stopped, and dissociation was measured. […] Measured association (kₐ, 1/Ms⁻¹) and dissociation (kd, s⁻¹) were fit to a 1:1 binding model to calculate a dissociation equilibrium constant, KD(M) for each analyte."}},
  "note": "Bridges are numbered along the chain shown (N, C = ends). Primed or numbered codes have the meaning given here. Where no end group is shown, it is not given here. [ ]: non-standard residue; d: D form. The star is where a group is joined. DOTA = O=C(O)CN1CCN(CC(=O)O)CCN(CC(=O)*)CCN(CC(=O)O)CC1; Biotin = O=C1N[C@H]2[C@H](CS[C@H]2CCCCC(=O)*)N1; Lys(Me3) = C[N+](C)(C)CCCC[C@H](N)C(=O)O; Arg(Me2s) = CN=C(NC)NCCC[C@H](N)C(=O)O; PEG4″ = 4(ethylene glycol); PEG4′ = not defined here",
  "data": [
    {"binder": "Ac-CEYDEEFFAGLKRLRGGDICYYIKKKFDKVPDLCIEEILDKLGC-OH (designed binder, disulfide 1-34, 20-44)", "note": "[C9]", "values": [
      {"measurement": "Kd", "setting": "Human Nectin-4 [1]", "value": 7.5, "unit": "nM"},
      {"measurement": "Kd", "setting": "Human Nectin-4 [2]", "value": 7.5, "unit": "nM"},
      {"measurement": "koff", "setting": "Human Nectin-4 [2]", "value": 0.0227, "unit": "s⁻¹"},
      {"measurement": "Kd", "setting": "Murine Nectin-4", "value": 7.83, "unit": "nM"},
      {"measurement": "koff", "setting": "Murine Nectin-4", "value": 0.0213, "unit": "s⁻¹"}
    ]},
    {"binder": "{DOTA-PEG4″}-CEYDEEFFAGLKRLRGGDICYYIKKKFDKVPDLCIEEILDKLGC-OH (designed binder, disulfide 1-34, 20-44)", "note": "[C12]", "values": [
      {"measurement": "Kd", "setting": "Human Nectin-4 [1]", "value": 10.5, "unit": "nM"},
      {"measurement": "koff", "setting": "Human Nectin-4 [2]", "value": 0.017, "unit": "s⁻¹"},
      {"measurement": "Kd", "setting": "Murine Nectin-4", "value": 2.94, "unit": "nM"},
      {"measurement": "koff", "setting": "Murine Nectin-4", "value": 0.0262, "unit": "s⁻¹"}
    ]},
    {"binder": "{DOTA-PEG4″}-CEYDEEFFAGLKRLRGGDICYYIKKKFDKVPDLCIEEILDKLGC-OH (designed binder, disulfide 1-34, 20-44; also: 138La complex of DOTA)", "note": "[C91]", "values": [
      {"measurement": "Kd", "setting": "Human Nectin-4 [2]", "value": 17.9, "unit": "nM"},
      {"measurement": "koff", "setting": "Human Nectin-4 [2]", "value": 0.0297, "unit": "s⁻¹"},
      {"measurement": "Kd", "setting": "Murine Nectin-4", "value": 24.6, "unit": "nM"},
      {"measurement": "koff", "setting": "Murine Nectin-4", "value": 0.0282, "unit": "s⁻¹"}
    ]},
    {"binder": "{DOTA-PEG4″}-CEYDEEFFTALKRLRGGDICYYIQASFQYLPGLCIEEILDNLGCS (designed binder, disulfide 1-34, 20-44; also: 177Lu-labelled in radioligand assay)", "note": "[C109]", "values": [
      {"measurement": "Kd", "setting": "[3]", "value": 8.72, "unit": "nM"}
    ]},
    {"binder": "{Biotin-PEG4″}-CEYDEQFFTALARLRGADICEYIQA[Lys(Me3)]FQYLPGLCIEEILDNLGCS-OH (designed binder, disulfide 1-34, 20-44)", "note": "[C262]", "values": [
      {"measurement": "Ki", "setting": "[4]", "value": 1.04, "unit": "nM"}
    ]},
    {"binder": "{Biotin-PEG4″}-CEYDEQFFTALARLRGGDICEYIQARFQYLPGLCIEEILDNLGCS (designed binder, disulfide 1-34, 20-44)", "note": "[C264]", "values": [
      {"measurement": "Kd", "setting": "Human Nectin-4 [5]", "value": 0.476, "unit": "nM"},
      {"measurement": "Ki", "setting": "[4]", "value": 0.53, "unit": "nM"}
    ]},
    {"binder": "{Biotin-PEG4″}-CEYDEQFFTALARLRGGDICEYIQA[Arg(Me2s)]FQYLPGLCIEEILDNLGCS (designed binder, disulfide 1-34, 20-44)", "note": "[C267]", "values": [
      {"measurement": "Kd", "setting": "Human Nectin-4 [5]", "value": 0.586, "unit": "nM"},
      {"measurement": "Ki", "setting": "[4]", "value": 0.76, "unit": "nM"}
    ]},
    {"binder": "{Biotin-PEG4″}-CEYDEQFFTALARLRGADICEYIQARFQYLPGLCIEEILDNLGCS-OH (designed binder, disulfide 1-34, 20-44)", "note": "[C280]", "values": [
      {"measurement": "Ki", "setting": "[4]", "value": 0.54, "unit": "nM"}
    ]},
    {"binder": "{DOTA-PEG4″}-CEYDEEFFTALKRLRGGDICYYIQAKFQYLPKLCIEEILDNLGCS (designed binder, disulfide 1-34, 20-44; also: 177Lu-labelled in the radioligand assay)", "note": "[C117]", "values": [
      {"measurement": "Kd", "setting": "[3]", "value": 2.64, "unit": "nM"}
    ]},
    {"binder": "{DOTA-PEG4″}-CEYDEEFFTALKRLRGGDICYYIKKKFKKVPKLCIEEILDKLGC-NH2 (designed binder, disulfide 1-34, 20-44; also: 177Lu-labelled in radioligand assay)", "note": "[C82]", "values": [
      {"measurement": "Kd", "setting": "[3]", "value": 14.1, "unit": "nM"}
    ]},
    {"binder": "{DOTA-PEG4′}-CEYDEEFFTALKRLRGGDICYYIKKKFKKVPKLCIEEILDKLGC-NH2 (designed binder, cysteine pairing not given here; also: 177Lu label on DOTA)", "note": "[C215]", "values": [
      {"measurement": "Kd", "setting": "[3]", "value": 5.01, "unit": "nM"}
    ]},
    {"binder": "{DOTA-PEG4″}-CEYDEEFFTALKRLRGGDICYYIKKKFDYLPKLCIEEILDNLGC-NH2 (designed binder, disulfide 1-34, 20-44; also: 177Lu-labelled in the radioligand assay)", "note": "[C214]", "values": [
      {"measurement": "Kd", "setting": "[3]", "value": 3.03, "unit": "nM"}
    ]}
  ]
}
